# Test results published in patent publication US20220042033A1, “COMPOSITION AND METHOD FOR CONFERRING AND/OR ENHANCING TOLERANCE AGAINST HERBICIDES BY USING VARIANTS OF PPO” (FarmHannong Co., Ltd., priority 2017, published 2022).
# Where a chain is given by its changes, count along the chain named. Names may count otherwise.
# B1: R95A + I168C + A170C + I311M + M365V: MxPPO (SEQ ID NO: 3) variant (protein)
# chain: MHHMPRTTGMNVAVVGGGISGLAVAHHLRSRGTDAVLLESSARLGGAVGTHALAGYLVEQGPNSFLDREPATRALAAALNLEGRIRAADPAAKRAYVYTRGRLRSVPASPPAFLASDILPLGARLRVAGELFSRRAPEGVDESLAAFGRRHLGHRATQVLLDAVQTGCYCGDVEQLSVAATFPMLVKMEREHRSLILGAIRAQKAQRQAALPAGTAPKLSGALSTFDGGLQVLIDALAASLGDAAHVGARVEGLAREDGGWRLIIEEHGRRAELSVAQVVLAAPAHATAKLLRPLDDALAALVAGIAYAPMAVVHLGFDAGTLPAPDGFGFLVPAEEQRRMLGAIHASTTFPFRAEGGRVLYSCVVGGARQPGLVEQDEDALAALAREELKALAGVTARPSFTRVFRWPLGIPQYNLGHLERVAAIDAALQRLPGLHLIGNAYKGVGLNDCIRNAAQLADALVAGNTSHAP
# modifications: Synthetic (Protoporphyrinogen IX oxidase (MxPPO) of Myxococcus xanthus)
# B2: R95A + I168C + I311M + L332T + M365V: MxPPO (SEQ ID NO: 3) variant (protein)
# chain: B1 chain with C170A, L332T
# modifications: Synthetic (Protoporphyrinogen IX oxidase (MxPPO) of Myxococcus xanthus)
# B3: I168C + A170C + I311M + L332T + M365V: MxPPO (SEQ ID NO: 3) variant (protein)
# chain: B1 chain with A95R, L332T
# modifications: Synthetic (Protoporphyrinogen IX oxidase (MxPPO) of Myxococcus xanthus)
# B4: R95A + A170C + I311M + M365V: MxPPO (SEQ ID NO: 3) variant (protein)
# chain: B1 chain with C168I
# modifications: Synthetic (Protoporphyrinogen IX oxidase (MxPPO) of Myxococcus xanthus)
# B5: R95A + I168C + A170C + L332T + M365I: MxPPO (SEQ ID NO: 3) variant (protein)
# chain: B1 chain with M311I, L332T, V365I
# modifications: Synthetic (Protoporphyrinogen IX oxidase (MxPPO) of Myxococcus xanthus)
# B6: R95A + I168C + I311M + M365V: MxPPO (SEQ ID NO: 3) variant (protein)
# chain: B1 chain with C170A
# modifications: Synthetic (Protoporphyrinogen IX oxidase (MxPPO) of Myxococcus xanthus)
# B7: R95A + I168C + A170C + I311M + L332T + M365V: MxPPO (SEQ ID NO: 3) variant (protein)
# chain: B1 chain with L332T
# modifications: Synthetic (Protoporphyrinogen IX oxidase (MxPPO) of Myxococcus xanthus)
# B8: R95A + I168C + L332T + M365I: MxPPO (SEQ ID NO: 3) variant (protein)
# chain: B1 chain with C170A, M311I, L332T, V365I
# modifications: Synthetic (Protoporphyrinogen IX oxidase (MxPPO) of Myxococcus xanthus)
# System: MxPPO
# Test: Herbicide tolerance test of MxPPO wild type and variants in PPO-deficient E. coli BT3(ΔPPO), growth on herbicide-containing LB agar
# Type: cell-based, Myxococcus xanthus
# Settings: relative to MxPPO WT, dark, up to 1000 μM (FIGS. 21-22)
# Experimental: Then, the extent of tolerance was evaluated.
row,Molecule,"Herbicide tolerance, flumioxazin"
1,B1,+ (1-9 fold higher tolerance)
2,B2,+ (1-9 fold higher tolerance)
3,B3,+ (1-9 fold higher tolerance)
4,B4,+ (1-9 fold higher tolerance)
5,B5,+ (1-9 fold higher tolerance)
6,B6,+ (1-9 fold higher tolerance)
7,B7,+ (1-9 fold higher tolerance)
8,B8,+ (1-9 fold higher tolerance)

# Same assay, conditions: relative to MxPPO WT, dark, up to 4000 μM (FIGS. 23-24)
row,Molecule,"Herbicide tolerance, sulfentrazone"
1,B1,+++ (100-999 fold higher tolerance)
2,B2,+++ (100-999 fold higher tolerance)
3,B3,++ (10-99 fold higher tolerance)
4,B4,+ (1-9 fold higher tolerance)
5,B5,+++ (100-999 fold higher tolerance)
6,B6,+++ (100-999 fold higher tolerance)
7,B7,+++ (100-999 fold higher tolerance)
8,B8,++ (10-99 fold higher tolerance)

# System: MxPPO
# Test: PPO enzyme activity of purified MBP-fused MxPPO wild type and variants
# Type: biochemical, Myxococcus xanthus
# Settings: PPO enzyme activity of purified MxPPO protein, relative to wild type
row,Molecule,Activity (%)
1,B1,17
2,B2,12
3,B3,20
4,B4,31
5,B5,18
6,B6,37
7,B7,8
8,B8,34
